T1: human Dll1 (human, UniProt O00548 18-723)
T1 construct: whole, on cells
T1 sequence (looked up): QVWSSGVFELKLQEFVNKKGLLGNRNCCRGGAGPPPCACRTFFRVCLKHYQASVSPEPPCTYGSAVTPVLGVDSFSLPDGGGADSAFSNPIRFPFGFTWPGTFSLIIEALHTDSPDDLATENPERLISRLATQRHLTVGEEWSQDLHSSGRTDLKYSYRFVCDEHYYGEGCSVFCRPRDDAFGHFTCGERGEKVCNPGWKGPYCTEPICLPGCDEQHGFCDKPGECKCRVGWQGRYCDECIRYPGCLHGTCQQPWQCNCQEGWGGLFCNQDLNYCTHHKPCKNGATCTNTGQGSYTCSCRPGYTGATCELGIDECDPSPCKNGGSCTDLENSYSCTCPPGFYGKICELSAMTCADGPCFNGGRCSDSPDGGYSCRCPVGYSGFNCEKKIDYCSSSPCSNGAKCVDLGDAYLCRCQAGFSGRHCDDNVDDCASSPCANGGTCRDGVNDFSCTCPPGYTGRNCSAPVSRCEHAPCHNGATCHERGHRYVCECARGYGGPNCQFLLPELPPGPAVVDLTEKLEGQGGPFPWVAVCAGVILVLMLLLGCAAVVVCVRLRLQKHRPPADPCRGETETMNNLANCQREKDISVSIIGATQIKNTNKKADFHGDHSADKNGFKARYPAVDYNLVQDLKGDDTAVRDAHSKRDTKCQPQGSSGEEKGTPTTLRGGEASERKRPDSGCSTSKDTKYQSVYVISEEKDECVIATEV


How the values were obtained:
human Jagged1 [1] = molecular target: T2, human Jagged1 (human, UniProt P78504 34-1218); experiment: FACS, 5 µg/ml, 293T cells with human Jagged1 vs mock
T2 construct: whole, on cells
T2 sequence (P78504 34-1218): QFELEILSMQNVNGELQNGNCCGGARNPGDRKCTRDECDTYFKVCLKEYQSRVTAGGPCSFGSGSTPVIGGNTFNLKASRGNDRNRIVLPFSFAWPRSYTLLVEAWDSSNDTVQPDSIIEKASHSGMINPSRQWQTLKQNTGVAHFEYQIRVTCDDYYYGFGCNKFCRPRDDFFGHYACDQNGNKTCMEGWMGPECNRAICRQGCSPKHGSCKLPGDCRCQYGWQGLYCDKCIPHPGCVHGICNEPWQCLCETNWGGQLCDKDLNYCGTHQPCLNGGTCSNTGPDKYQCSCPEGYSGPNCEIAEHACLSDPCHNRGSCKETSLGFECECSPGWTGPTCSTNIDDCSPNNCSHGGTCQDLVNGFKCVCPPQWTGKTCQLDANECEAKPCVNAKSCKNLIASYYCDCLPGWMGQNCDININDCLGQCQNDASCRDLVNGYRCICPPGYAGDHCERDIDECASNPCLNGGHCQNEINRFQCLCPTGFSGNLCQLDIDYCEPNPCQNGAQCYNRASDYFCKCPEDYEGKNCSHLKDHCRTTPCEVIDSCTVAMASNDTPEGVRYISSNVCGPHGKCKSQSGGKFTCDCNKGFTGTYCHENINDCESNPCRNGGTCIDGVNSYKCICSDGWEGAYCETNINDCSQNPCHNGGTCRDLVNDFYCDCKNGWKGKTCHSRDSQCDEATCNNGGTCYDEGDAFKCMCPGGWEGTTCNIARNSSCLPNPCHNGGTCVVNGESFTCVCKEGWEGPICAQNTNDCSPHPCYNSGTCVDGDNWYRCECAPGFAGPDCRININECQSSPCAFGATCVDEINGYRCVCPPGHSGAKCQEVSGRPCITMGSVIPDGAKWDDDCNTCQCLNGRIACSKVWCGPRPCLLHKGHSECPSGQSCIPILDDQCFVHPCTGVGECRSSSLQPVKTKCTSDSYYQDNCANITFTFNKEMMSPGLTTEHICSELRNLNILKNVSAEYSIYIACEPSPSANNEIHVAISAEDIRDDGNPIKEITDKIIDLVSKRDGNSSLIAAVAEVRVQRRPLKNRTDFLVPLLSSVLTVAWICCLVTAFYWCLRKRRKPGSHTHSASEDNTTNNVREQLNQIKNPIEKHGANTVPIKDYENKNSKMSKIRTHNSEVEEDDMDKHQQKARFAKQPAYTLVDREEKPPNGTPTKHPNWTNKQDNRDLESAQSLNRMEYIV
Description: (§1) The ability of the purified antibodies to bind to human Jagged1 and Dll1 was determined by FACS analysis. […] Cells were resuspended in PBS containing 2% FCS and seeded at 50000 cells/well into V-bottomed plates. Anti-DLL4 antibodies diluted in PBS containing 2% FCS were added at a final concentration of 5 or 15 μg/ml and plates were incubated for 1 h at 4° C. […] Data was analyzed by comparing the shift in geometric mean fluorescence in the mock-transfected cells to that observed in the Jagged1- or Dll1-transfected cells and is shown in Tables 16 and 17.

[2] = molecular target: DLL4 extracellular domain (R&D systems, catalog #1506-D4/CF) (UniProt Q9NR61 27-529, limits assumed); experiment: cell-based or functional assay
DLL4 extracellular domain (R&D systems, catalog #1506-D4/CF), sequence (Q9NR61 27-529 limits assumed): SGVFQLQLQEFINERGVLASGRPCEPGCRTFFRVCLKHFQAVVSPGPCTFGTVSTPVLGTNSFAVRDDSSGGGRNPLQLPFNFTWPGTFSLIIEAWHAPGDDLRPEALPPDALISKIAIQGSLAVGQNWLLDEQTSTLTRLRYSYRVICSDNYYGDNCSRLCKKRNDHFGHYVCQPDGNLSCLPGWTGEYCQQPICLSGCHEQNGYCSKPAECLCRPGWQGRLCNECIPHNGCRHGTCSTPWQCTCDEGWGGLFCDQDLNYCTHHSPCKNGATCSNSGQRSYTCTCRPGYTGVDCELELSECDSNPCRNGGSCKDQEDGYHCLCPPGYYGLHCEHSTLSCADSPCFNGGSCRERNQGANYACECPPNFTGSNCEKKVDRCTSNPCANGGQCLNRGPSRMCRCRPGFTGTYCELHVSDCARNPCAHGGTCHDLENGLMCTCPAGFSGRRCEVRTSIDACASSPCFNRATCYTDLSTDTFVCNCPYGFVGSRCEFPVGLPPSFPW

human Jagged1 [3] = molecular target: T2, human Jagged1; experiment: FACS, 5 µg/ml, 293T cells with human Jagged1
Description: as §1

human Dll1 [4] = molecular target: T1, human Dll1; experiment: FACS, 15 µg/ml, 293T cells with human Dll1 vs mock
Description: as §1

full length human DLL4 [5] = molecular target: T3, full length human DLL4 (human, UniProt Q9NR61 27-685); experiment: FMAT competition, purified antibody vs Alexa-647 human Notch1/Fc, 293T cells with human DLL4
T3 construct: whole, on cells; also called native DLL4 expressed in HEK293 cells
T3 sequence (Q9NR61 27-685): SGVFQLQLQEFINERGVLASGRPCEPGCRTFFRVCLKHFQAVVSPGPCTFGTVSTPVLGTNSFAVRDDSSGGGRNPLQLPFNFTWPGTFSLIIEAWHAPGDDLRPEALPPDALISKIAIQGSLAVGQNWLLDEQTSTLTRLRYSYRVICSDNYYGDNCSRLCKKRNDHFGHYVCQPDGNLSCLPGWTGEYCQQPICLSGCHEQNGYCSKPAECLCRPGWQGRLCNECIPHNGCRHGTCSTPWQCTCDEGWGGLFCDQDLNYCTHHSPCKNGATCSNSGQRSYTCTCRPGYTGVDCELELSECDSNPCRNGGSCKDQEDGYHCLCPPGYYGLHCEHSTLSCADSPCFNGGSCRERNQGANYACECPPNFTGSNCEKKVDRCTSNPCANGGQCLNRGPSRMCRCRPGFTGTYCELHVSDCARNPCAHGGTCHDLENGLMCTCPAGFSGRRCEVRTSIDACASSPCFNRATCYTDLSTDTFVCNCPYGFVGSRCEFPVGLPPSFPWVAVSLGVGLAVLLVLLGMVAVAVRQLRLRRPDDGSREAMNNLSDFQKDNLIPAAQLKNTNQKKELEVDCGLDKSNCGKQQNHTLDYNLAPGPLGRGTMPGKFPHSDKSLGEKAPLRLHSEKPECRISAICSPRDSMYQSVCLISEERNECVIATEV
Description: To discriminate between the purified antibodies based upon their ability to prevent the interaction between full-length recombinant DLL4 and soluble Notch1/Fc, the following assays were performed. Transfected and untransfected 239T cells were reconstituted in PBS containing 2% FCS and 5000 transfected and 17500 non-transfected cells were plated in 30 μl into wells of a 384-well tissue culture plate (Corning Costar, catalog #3712). Subsequently, 30 μl of purified antibodies, serial diluted from 5 μg/ml hybridoma supernatant was added and plates were incubated at 4° C. for 1 h, at which time 20 μl of 100 ng/ml Alexa-647 labeled human Notch1/Fc was added. After a further 3 h incubation at 4° C., the amount of bound Notch1/Fc was determined by reading the fluorescence in each well using an FMAT 8200 instrument (Applied Biosystems).

human Dll1 [6] = molecular target: T1, human Dll1; experiment: FACS, 15 µg/ml, 293T cells with human Dll1
Description: as §1

human Jagged1 [7] = molecular target: T2, human Jagged1; experiment: FMAT, hybridoma supernatant, 293T cells with human Jagged1
Description: (§2) Cells diluted in PBS containing 2% FBS were seeded at a density of 3000 expressing and 15000 mock transfected cells per well in 384 well plates (Corning Costar, catalog #3712). Immediately after plating, 15 or 20 μl/well of hybridoma supernatants and 10 μl/well of secondary antibody (Goat anti-human IgG Fc Cy5, final concentration 750 ng/ml) were added and plates incubated for 3 h at room temperature prior to reading the fluorescence on the FMAT 8200 instrument (Applied Biosystems). The binding of human Notch1/Fc chimera (R&D systems, catalog #3647-TK), diluted 1:2 from 2.86 μg/ml was used as a positive control for DLL4 and human Notch3/Fc chimera diluted from 10 μg/ml was used a positive control for binding to Jagged1. Results for 12 hybridoma supernatants showing binding of hybridoma supernatants to human/cynomolgus monkey DLL4 and human Jagged are shown in Table 3.

full length human DLL4 [8] = molecular target: T3, full length human DLL4; experiment: FMAT competition, supernatant vs Alexa-647 human Notch1/Fc, 293T cells with human DLL4
Description: Transfected and untransfected 239T cells were reconstituted in PBS containing 2% FCS and 5000 transfected and 17500 non-transfected cells were plated in 20 μl into wells of a 384-well tissue culture plate (Corning Costar, catalog #3712). Subsequently, 20 μl of hybridoma supernatant was added and plates were incubated at 4° C. for 1 h, at which time 20 μl of Alexa-647 labeled human Notch1/Fc was added at a final concentration of 6.7 ng/ml. After a further 3 h incubation at 4° C., the amount of bound Notch1/Fc was determined by reading the fluorescence in each well using an FMAT 8200 instrument (Applied Biosystems). Results are expressed as % inhibitions with the minimum inhibition in the assay being determined by the effects of non-DLL4 binding supernatants prepared in a similar way as described in example 2, and the maximum inhibition being defined as the signal obtained in the presence of a saturating concentration of unlabeled Notch1/Fc. N.T.=not tested

full length human DLL4 [9] = molecular target: T3, full length human DLL4; experiment: FMAT, hybridoma supernatant, 293T cells with human DLL4
Description: as §2

| Jagged1/mock ratio (human Jagged1 [1]) | % inhibition 1 µg/ml, N = 1 (HUVEC proliferation on coated DLL4) [2] | % inhibition 10 µg/ml, N = 1 (HUVEC proliferation on coated DLL4) [2] | Jagged1/293T X Geo mean (human Jagged1 [3]) | Dll1/mock ratio (human Dll1 [4]) | % inhibition at 0.020 nM (full length human DLL4 [5]) | % inhibition at 0.070 nM (full length human DLL4 [5]) | % inhibition at 0.21 nM (full length human DLL4 [5]) | % inhibition at 0.62 nM (full length human DLL4 [5]) | % inhibition at 1.9 nM (full length human DLL4 [5]) | % inhibition at 5.6 nM (full length human DLL4 [5]) | % inhibition at 16.7 nM (full length human DLL4 [5]) | IC50 (full length human DLL4 [5]) | Dll1/293T X Geo mean (human Dll1 [6]) | Count (human Jagged1 [7]) | FL1 (human Jagged1 [7]) | FL1 x count (human Jagged1 [7]) | % inhibition n = 2 (full length human DLL4 [8]) | % inhibition n = 3 (full length human DLL4 [8]) | Mean % inhibition (full length human DLL4 [8]) | Binder | further results |
| --- | --- | --- | --- | --- | --- | --- | --- | --- | --- | --- | --- | --- | --- | --- | --- | --- | --- | --- | --- | --- | --- |
| 1.08 | 24% | 48% | 16.3 | 1.14 | 14% | 25% | 14% | 29% | 69% | 121% | 115% | 1.81 nM | 47 | 30 | 1440 | 43100 | 108% | 131% | 120% | 17F3 (antibody, IgG2, V domains shown, Fully human; also used where no isotype is printed) VH: QVQLVQSGAEVKKPGASVKVSCKASGYTFTNYGISWVRQAPGQGLEWMGWINAYNGNTNYAQNLQGRVTMTTDTSTNTAYMELRSLRSDDTAVYYCARVAPAAFFDYWDQGTLVTVSS VL: SYELTQPPSVSVSPGQTASITCSGDKLGDKYVCWYQQKPGQSPVLVIYQDNKRPSGIPERFSGSNSGNTATLIISGTQAMDEADYYCQAWDSSTVFGGGTKLTVL | % inhibition 1 µg/ml, AVERAGE (HUVEC proliferation on coated DLL4) [2]: 30%; % inhibition 1 µg/ml, N = 2 (HUVEC proliferation on coated DLL4) [2]: 35%; % inhibition 10 µg/ml, AVERAGE (HUVEC proliferation on coated DLL4) [2]: 52%; % inhibition 10 µg/ml, N = 2 (HUVEC proliferation on coated DLL4) [2]: 56%; Count (full length human DLL4 [9]): 219; FL1 (full length human DLL4 [9]): 11300; FL1 x count (full length human DLL4 [9]): 2.47e+06 |
| 1.01 | 30% | 48% | 13.8 | 1.13 | 11% | 17% | 7% | -22% | 35% | 116% | 104% | 1.95 nM | 30.2 | 1 | 2070 | 2070 | 93% | 140% | 117% | 21F7 (antibody, IgG2, V domains shown, Fully human; also used where no isotype is printed) VH: QVQLVQSGAEVKKPGASVKVSCQASGYTFTNYGISWVRQAPGQGLEWMGWINAYNGNTNYAQNLQGRVTMTTDTSTNTAYMELRSLRSDDTAVYYCARVAAAAFFDYWDQGTLVTVSS VL: not shown | Count (full length human DLL4 [9]): 200; FL1 (full length human DLL4 [9]): 10400; FL1 x count (full length human DLL4 [9]): 2.08e+06 |
| 1.11 | 50% | 62% | 14.4 | 1.12 | 6% | -18% | 9% | 15% | 88% | 119% | 101% | 1.48 nM | 47 | 25 | 988 | 24700 | 147% | 144% | 131% | 12A1 (antibody, IgG4, V domains shown, Fully human; also used where no isotype is printed) VH: QVQLVQSGAEVKRPGASVKVSCKASGYTFTSYGITWVRQAPGQGLEYMGWISTYNGNTDYAQKFQGRVTMTADISTSTAYMELRSLRSDDTAVYYCARERGSYFDYWGQGTLVTVSS VL: SYELTQPPSVSVSPGQTARITCSGDTLPKKYAYWYQQKSGQAPVLVIYEDIKRPSGIPERFSGSSSGTMATLTISGAQVEDEADYYCFSTDSGGNHKFGGGTKLTVL | % inhibition 1 µg/ml, AVERAGE (HUVEC proliferation on coated DLL4) [2]: 56%; % inhibition 1 µg/ml, N = 2 (HUVEC proliferation on coated DLL4) [2]: 62%; % inhibition 10 µg/ml, AVERAGE (HUVEC proliferation on coated DLL4) [2]: 74%; % inhibition 10 µg/ml, N = 2 (HUVEC proliferation on coated DLL4) [2]: 85%; % inhibition n = 1 (full length human DLL4 [8]): 103%; Count (full length human DLL4 [9]): 179; FL1 (full length human DLL4 [9]): 9520; FL1 x count (full length human DLL4 [9]): 1.76e+06 |

From patent publication US20100196385A1 (AstraZeneca / MedImmune, published 2010)
